According to US20260144872A1:
Values joined by “and” are separate entries in the source; they are usually repeats but may differ in a detail not shown here. Identical values can stand only once.

Molecular target: CD16 (activating FcγRIIIa, CD16a) on NK cells (UniProt P08637)
Assay: cell-based or functional assay

Chain of UniProt P08637 (P08637 17-254 limits assumed): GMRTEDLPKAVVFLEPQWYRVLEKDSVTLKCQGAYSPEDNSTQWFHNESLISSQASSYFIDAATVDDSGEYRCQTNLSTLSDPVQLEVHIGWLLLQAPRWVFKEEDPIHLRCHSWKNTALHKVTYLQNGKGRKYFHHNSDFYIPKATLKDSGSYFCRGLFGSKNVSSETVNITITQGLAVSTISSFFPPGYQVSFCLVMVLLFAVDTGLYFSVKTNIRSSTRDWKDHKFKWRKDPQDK

Row | Substance | CD16 positive % on NK cells after PMA (1 ug/mL, 1 hour), EP controls (ADAM17 intact) [%] | CD16 positive % on NK cells after PMA (1 ug/mL, 1 hour), ADAM17 edited cells
1 | a disintegrin and metalloproteinase domain-containing protein 17 (ADAM17) (from UniProt P78536 215-824) (enzyme) | 0.62 to 6 | –
2 | a disintegrin and metalloproteinase domain-containing protein 17 (ADAM17) (from UniProt P78536 215-824) | – | 72.4% and 92%
